These results are taken from paper PMC6249866 (Molecular Biology of the Cell, 2018).

The target in the assay is T1, Asl-A-His6 (WT; Asterless amino acids 1-374) (Drosophila, UniProt Q9VNE4 1-374).
T1 sequence (looked up): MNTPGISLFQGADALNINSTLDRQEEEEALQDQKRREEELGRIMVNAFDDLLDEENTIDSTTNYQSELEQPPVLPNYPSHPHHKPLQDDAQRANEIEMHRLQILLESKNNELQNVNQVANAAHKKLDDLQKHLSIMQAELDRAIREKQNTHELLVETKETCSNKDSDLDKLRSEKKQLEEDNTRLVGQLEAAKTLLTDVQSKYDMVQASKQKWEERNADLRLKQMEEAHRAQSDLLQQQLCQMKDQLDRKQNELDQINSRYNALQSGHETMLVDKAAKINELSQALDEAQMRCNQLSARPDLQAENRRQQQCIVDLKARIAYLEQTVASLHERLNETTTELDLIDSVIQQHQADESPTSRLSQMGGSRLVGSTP
The assay can be described thus: pull-down.

B1: GST-PB1-PB2 (Plk4 amino acids 382-602) (domain or fragment, Drosophila, UniProt O97143 382-602, looked up)
chain: DRISVPPLNTKRLLPTRYKTKNAIMSILRNGEVVLEFLKFRPTYNEDRINDICRISDDGQRIIIYQPDPGRGLPVREQPPDLQIPSGDCVYNYDNLPSKHWKKYIYGARFVGLVKSKTPKVTYFSTLGKCQLMETMTDFEIRFYSGAKLLKTPSEGLKVYDRNGMLLSDYSCSESRSLIEHGNECFTHCVNISNALEVAQTKDNSCFPVTIGRRPITDVQP
B1: the binding result is listed as “binds”.
